Changes are numbered by the printed parent chain.
Columns and labels:
[1] = test system: MAb 4H12; assay: Inhibition MIPA (microsphere peptide-based immunoassay, indirect competitive format, MAGPIX); format: binding; settings: for recognition / cross-reactivity of somatotropins with MAb 4H12: calibration curves up to 100 µg mL^-1, PBST/BSA; for concentration of full inhibition: somatotropin as competitor in PBST/BSA
Experimental: (§1) Microsphere preparation was executed according to Bremer et al. with the exception that Magplex® microsphere sets instead of seroMAP microspheres were used. During the procedure, microspheres were trapped using a magnet (1 min) and after removal of the supernatant, trapped microspheres were resuspended by vortexing (1 min). The peptides pep, pep-K, pep-peg, pep-aca and rbST standard were coupled to the different internally dyed microsphere sets, i.e., microsphere set numbers 012, 043, 029, 038 and 064, respectively (Figure 2). The internal dye gives the microsphere set a unique spectral signature, and consequently, a unique read-out region. For each microsphere set, 2.5 × 10^6 microspheres were covalently coupled with a two-step carbodiimide reaction using 500 μL of 100 µg mL^−1 peptide in boric acid solution (100 mM boric acid, 1M NaCl, adjusted to pH 8.3 with NaOH), and 100 µg mL^−1 rbST in MES buffer (50 mM MES pH 5.0). After coupling, the microspheres were stable for over 1 year when stored in a blocking buffer (PBS, 0.1% BSA, 0.02% Tween-20 and 0.05% NaN3) at 2–8 °C in the dark until use, with the exception for the microspheres measured with XPS, which were stored in Milli-Q water until use.
(§2) In this procedure, all dilution and washing steps were executed using PBST containing 0.1% BSA. In total, 100 μL of rbST, eST, pST and hST standard solution or injection preparation extract were added to a low bind 96-well microtiter plate. Next, 10 μL of 20-, 2-, 2-, 1- and 0.7 ng mL^−1 antibody for microspheres coated with, respectively, pep, pep-peg, pep-aca, k-pep and rbST and microspheres (10 μL diluted suspension containing about 1250 microspheres per microsphere set) were added to each well. The microtiter plate was incubated for 20 min on a microtiter plate shaker to allow competition between the immobilized rbST epitope peptides or protein on the microspheres and the somatotropin (ST) present in the solution for the available antibody binding sites. After incubation, the microspheres were trapped by a magnet and washed twice. After washing, a 125 μL, 625-times diluted PE labeled Goat anti Mouse antibody was added and incubated for 20 min on a microtiter plate shaker. After this incubation step, microspheres were trapped with a magnet, supernatant removed and 125 µL PBST containing 0.1% BSA added. The plate was briefly mixed on the microtiter plate shaker before measuring on the imaging planar array analyzer (MAGPIX).
Figure 3 Summarized workflow and assay principle of the indirect competitive assay format for somatotropins. In absence of rbST (upper part), MAb 4H12 binds to the peptide-coated microspheres, which enables binding of the PE coupled secondary antibody. The presence of PE results in a high signal in the imaging planar array analyzer. In presence of rbST (lower part), MAb 4H12 binds to the rbST in solution. […] As no PE is present, this will result in a low signal in the imaging planar array analyzer.

[2] = test system: MAb 4H12; assay: MIPA binding of MAb 4H12 to peptide- or rbST-coupled microspheres; settings: peptide or protein coupled to microspheres, MAGPIX read-out
Experimental: as §1, §2

[3] = test system: MAb 4H12; assay: Epitope mapping of rbST for MAb 4H12 (Pepscan, ELISA-type read out); format: binding; settings: all four epitope designs (sets 1-4: linear 15-mers, double-Ala, α-helical loop mimics)
Source text: The entire sequence of rbST (Figure 1A) was epitope mapped for antibody 4H12 by Pepscan Presto BV (Lelystad, The Netherlands), as described before. Briefly, the rbST sequence was derived from the endogenous bST sequence by replacing the N-terminal alanine (Ala) with a methionine (Met) residue. With this rbST sequence, four sets of peptides were produced and used to determine the binding epitope of MAb 4H12: (i) linear peptides of 15 amino acids in length with an offset of one amino acid (set 1), (ii) linear peptides similar to set 1, with the amino acids on place 10 and 11 replaced by alanine (Ala); a native Ala present on place 10 and/or 11 was replaced by glycine (Gly) (set 2), (iii) α-helical loop mimics of 21 amino acids in length with an offset of one amino acid and cysteine residues on place 1 and 5 to enable connection with an α-helix-inducing mP2 chemical linkage of peptides onto scaffolds (CLIPS, set 3) and (iv) α-helical loop mimics similar to set 3, with the two Cys residues placed on amino acid numbers 1 and 8, which were also linked with mP2 CLIPS (set 4). Binding of Mab 4H12 to the described peptides is quantified using an ELISA-type read out.
Figure 1 Schematic representation of the four epitope mapping approaches to identify peptide-based mimics of recombinant bovine somatotropin (rbST) that bind to the monoclonal antibody 4H12. […]

[4] = test system: MAb 4H12; assay: Surface plasmon resonance, MAb 4H12 on immobilized rbST or pep-peg; format: binding
Source text: (§3) Although the literature often describes the need for spacers in peptide-based biorecognition assays, in our assay format based on the MAb 4H12 and the peptide 115[…]125 biorecognition pair, no spacers were required. […] The presence of peptides on the microspheres was proven by XPS measurements (Supplementary Materials, Figure S2). In addition, the specificity was compared by initial surface plasmon resonance (SPR) experiments, where the pep-peg peptide was coupled to one microfluidic channel and rbST to another channel of the sensor surface. The sensor channels were incubated with two different rbST-induced monoclonal antibodies, MAb 4H12, which specifically binds the peptide 115[…]125 and MAb 5E2, which recognizes another, yet unknown, epitope. […] Next, MAb 4H12 concentrations were optimized for the microsphere peptide-based immunoassay to a dilution factor corresponding to a signal intensity of 1000 MFI for the blank standard (dilution buffer, Supplementary Materials, Table S2). […] The antibody concentrations in combination with the respective microspheres were used to determine the sensitivity of MAb 4H12 for the determination of full rbST-protein in standard solutions, as shown in Figure 4. For bot, rbST-protein and peptide immobilized microspheres, typical dose-response curves were obtained, with IC50 values of, respectively, 0.20 µg mL^−1 and 0.11 µg mL^−1.

[5] = test system: MAb 5E2; assay: Surface plasmon resonance, MAb 5E2 on immobilized rbST or pep-peg; format: binding
Source text: as §3

[6] = test system: dairy cows; settings: according to the manufacturer's protocol; cited from earlier work
Source text: RbST is a 191 amino acid long protein hormone that enhances growth and lactating performance in cattle. When administered to dairy cows according to the manufacturer’s protocol, milk production can increase up to 25% [11]. The use of rbST for milk-enhancing properties is approved in several countries, but is banned in the European Union. To control this ban, a strategy to detect rbST misuse in the EU has been described by Smits et al.. The strategy for rbST in serum and milk from dairy cows is based on the digestion of the proteins and detection of rbST-specific peptides formed ...

[7] = microspheres coupled with pep, n = 2

## hST: human Somatotropin from Sigma-Aldrich
[1]; [7]
  recognition / cross-reactivity of somatotropins with MAb 4H12: not able to recognize and bind

## MRIEGLADLEL [pep-scr, linear peptide scrambled]
[2]
  binding of MAb 4H12 to coupled microspheres: did not show any binding
[2]; listed as scrambled peptide
  binding of MAb 4H12 to coupled microspheres: no binding occurred

## DLEEGILALMR [pep]
[2]
  binding of MAb 4H12 to coupled microspheres: showed binding
[3]
  binding between MAb 4H12 and epitope sequence: binding

B1: rbST: 191 amino acid long protein hormone; rbST protein standard from NHPP (Dr. Parlow) (protein, UniProt P01246 27-217, looked up)
Somatotropin: AFPAMSLSGLFANAVLRAQHLHQLAADTFKEFERTYIPEGQRYSIQNTQVAFCFSETIPAPTGKNEAQQKSDLELLRISLLLIQSWLGPLQFLSRVFTNSLVFGTSDRVYEKLKDLEEGILALMRELEDGTPRAGQILKQTYDKFDTNMRSDDALLKNYGLLSCFRKDLHKTETYLRVMKCRRFGEASCAF
[4]
  SPR binding of MAb 4H12: Both MAbs showed binding
[2]
  binding of MAb 4H12 to coupled microspheres: showed binding
[5]
  SPR binding of MAb 5E2: Both MAbs showed binding
[6]
  increase of milk production: up to 25%
[1]; competitor rbST in PBST/0.1% BSA, label = peptide or protein coupled to the microspheres, MAb 4H12 20, 2, 2, 1, 0.7 ng mL^-1 for pep, pep-peg, pep-aca, pep-K, rbST, 20 min incubation, GAM-PE, MAGPIX, four-parameter fit, n = 3
  IC50 of rbST in inhibition MIPA, per microsphere set: 0.20 µg/mL
[1]; somatotropin as competitor at 1 µg mL^-1 in PBST/BSA, microspheres coupled with pep, n = 2
  inhibition of MAb 4H12 at 1 µg mL^-1: almost completely inhibits

B2: eST: equine somatotropin from Bresagen (protein, UniProt P01245 27-216, looked up)
Somatotropin: FPAMPLSSLFANAVLRAQHLHQLAADTYKEFERAYIPEGQRYSIQNAQAAFCFSETIPAPTGKDEAQQRSDMELLRFSLLLIQSWLGPVQLLSRVFTNSLVFGTSDRVYEKLRDLEEGIQALMRELEDGSPRAGQILKQTYDKFDTNLRSDDALLKNYGLLSCFKKDLHKAETYLRVMKCRRFVESSCAF
[1]; [7]
  recognition / cross-reactivity of somatotropins with MAb 4H12: cross-reactivity was seen
  concentration of full inhibition: around 100 µg mL^-1

B3: pST: Porcine Somatotropin from Sigma-Aldrich (protein, UniProt P01248 27-216, looked up)
Somatotropin: B2 Somatotropin with M72V, L91F, R113K
[1]; [7]
  recognition / cross-reactivity of somatotropins with MAb 4H12: cross-reactivity was seen
  concentration of full inhibition: around 100 µg mL^-1
